# Experimental data taken from article PMC9598537.
# How the values were obtained:
# [1] = target: AR9 chaperonin (gp228, product of gene 228 of bacteriophage AR9 Bacillus subtilis) (bacteriophage AR9 (Bacillus subtilis phage)); test: cryo-EM structure; purified apo gp228 in 50 mM Tris-HCl pH 7.5, 10 mM MgCl2, 100 mM KCl; single particle analysis, maps with no symmetry and with C7 symmetry; homology model flexibly fitted into the map
# [2] = target: AR9 chaperonin (gp228, product of gene 228 of bacteriophage AR9 Bacillus subtilis) (bacteriophage AR9 (Bacillus subtilis phage)); test: SAXS; gp228 at 0.5 to 7.0 mg/mL, 20 °C, P12 beamline PETRA III; oligomeric state from the excluded volume Vp
substance,measurement,setting,value
"AR9 chaperonin (gp228, product of gene 228 of bacteriophage AR9 Bacillus subtilis) (natural protein)",stoichiometry N,[1],7
same,stoichiometry N,[2],7
